Data taken from PMC9973331, “DNA Methylation and RNA-DNA Hybrids Regulate the Single-Molecule Localization of a DNA Methyltransferase on the Bacterial Nucleoid”.

Assays:
DnmA[Y465A] = molecular target: T1, DnmA[Y465A] (Bacillus subtilis, UniProt O31504 1-879, Y465A); assay: EMSA; EMSA: 5x buffer 500 mM Tris-HCl pH 8, 1.25 M NaCl, 10% glycerol (1x: 100 mM Tris, 250 mM NaCl, 2% glycerol), 5 nM probe, 30 min at 25 C; 6% native PAGE in 1x TBE on ice; settings: protein: recombinant; tags: His-SUMO tag (pE-SUMO) removed by SUMO protease; label: 5' IRDye700 on strand 1; 5' IRDye800 on strand 2; blunt
T1 sequence: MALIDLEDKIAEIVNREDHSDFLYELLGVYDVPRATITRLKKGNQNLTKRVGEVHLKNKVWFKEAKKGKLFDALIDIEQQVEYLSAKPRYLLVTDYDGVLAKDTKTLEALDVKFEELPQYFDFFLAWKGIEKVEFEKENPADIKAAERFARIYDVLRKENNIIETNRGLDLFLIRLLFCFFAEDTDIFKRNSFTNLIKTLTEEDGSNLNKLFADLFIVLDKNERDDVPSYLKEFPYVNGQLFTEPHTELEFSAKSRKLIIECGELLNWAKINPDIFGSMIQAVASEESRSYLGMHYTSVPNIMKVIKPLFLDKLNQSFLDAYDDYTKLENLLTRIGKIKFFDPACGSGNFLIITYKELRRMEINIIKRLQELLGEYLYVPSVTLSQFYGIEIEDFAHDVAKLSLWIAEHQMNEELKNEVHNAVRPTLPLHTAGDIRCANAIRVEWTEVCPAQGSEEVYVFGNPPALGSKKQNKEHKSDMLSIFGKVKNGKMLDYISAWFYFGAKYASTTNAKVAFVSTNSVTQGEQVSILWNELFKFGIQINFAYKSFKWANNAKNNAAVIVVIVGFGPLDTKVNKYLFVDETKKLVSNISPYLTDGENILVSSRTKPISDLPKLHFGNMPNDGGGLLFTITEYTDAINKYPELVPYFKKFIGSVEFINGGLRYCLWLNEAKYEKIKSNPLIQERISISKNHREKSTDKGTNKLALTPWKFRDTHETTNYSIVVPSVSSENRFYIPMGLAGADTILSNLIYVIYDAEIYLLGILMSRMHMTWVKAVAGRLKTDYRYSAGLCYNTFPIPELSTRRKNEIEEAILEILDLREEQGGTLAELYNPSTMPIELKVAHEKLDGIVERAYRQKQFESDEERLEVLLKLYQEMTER

DnmA[6AA*] = molecular target: T2, DnmA[6AA*] (Bacillus subtilis, UniProt O31504 1-879, K470A;M620A;N748A;L780A;K781A;D783A); assay: as above; settings: protein: recombinant; tags: His-SUMO tag (pE-SUMO) removed by SUMO protease; label: 5' IRDye700 on strand 1; 5' IRDye800 on strand 2; blunt
T2 sequence: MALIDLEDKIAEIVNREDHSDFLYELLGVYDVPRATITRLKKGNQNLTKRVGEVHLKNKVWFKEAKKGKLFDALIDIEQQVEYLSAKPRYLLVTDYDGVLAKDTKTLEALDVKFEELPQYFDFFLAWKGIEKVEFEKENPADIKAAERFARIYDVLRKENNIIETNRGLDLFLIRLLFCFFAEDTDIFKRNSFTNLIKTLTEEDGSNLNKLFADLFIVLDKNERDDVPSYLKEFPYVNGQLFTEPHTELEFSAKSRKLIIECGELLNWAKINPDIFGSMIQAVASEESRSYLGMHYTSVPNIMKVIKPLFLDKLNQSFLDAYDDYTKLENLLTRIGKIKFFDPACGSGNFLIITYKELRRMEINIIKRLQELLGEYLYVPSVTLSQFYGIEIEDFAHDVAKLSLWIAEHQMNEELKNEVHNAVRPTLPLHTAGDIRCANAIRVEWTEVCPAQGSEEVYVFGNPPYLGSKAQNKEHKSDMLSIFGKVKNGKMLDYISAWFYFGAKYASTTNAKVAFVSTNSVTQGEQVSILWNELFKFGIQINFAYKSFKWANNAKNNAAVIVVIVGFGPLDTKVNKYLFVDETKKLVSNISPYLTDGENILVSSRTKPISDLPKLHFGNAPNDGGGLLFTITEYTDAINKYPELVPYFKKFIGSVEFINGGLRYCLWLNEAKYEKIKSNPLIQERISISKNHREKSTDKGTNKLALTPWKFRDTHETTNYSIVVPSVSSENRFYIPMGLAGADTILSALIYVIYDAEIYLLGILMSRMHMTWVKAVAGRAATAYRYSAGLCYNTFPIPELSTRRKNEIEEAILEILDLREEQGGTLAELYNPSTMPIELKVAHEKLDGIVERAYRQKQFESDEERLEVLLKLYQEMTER

B1: unmethylated dsDNA (oTMN67/oTMN68) (dsDNA)
DNA 1: CAAAACAGGATATGAAATAGTATTGGACGAGAGCTTTTTGGTGGCTTATACTATAG
DNA 2: CTATAGTATAAGCCACCAAAAAGCTCTCGTCCAATACTATTTCATATCCTGTTTTG
- apparent K (half saturation) (DnmA[Y465A]): 164 ± 26.8 nM
- apparent K (half saturation) (DnmA[6AA*]): 458 ± 185 nM
